Usually Kd stands for a measure of binding affinity in units of concentration. A low value points to higher affinity.

The data set concerns the target T1, ETS-4 (Caenorhabditis elegans) (UniProt A8WFJ9).
T1 sequence: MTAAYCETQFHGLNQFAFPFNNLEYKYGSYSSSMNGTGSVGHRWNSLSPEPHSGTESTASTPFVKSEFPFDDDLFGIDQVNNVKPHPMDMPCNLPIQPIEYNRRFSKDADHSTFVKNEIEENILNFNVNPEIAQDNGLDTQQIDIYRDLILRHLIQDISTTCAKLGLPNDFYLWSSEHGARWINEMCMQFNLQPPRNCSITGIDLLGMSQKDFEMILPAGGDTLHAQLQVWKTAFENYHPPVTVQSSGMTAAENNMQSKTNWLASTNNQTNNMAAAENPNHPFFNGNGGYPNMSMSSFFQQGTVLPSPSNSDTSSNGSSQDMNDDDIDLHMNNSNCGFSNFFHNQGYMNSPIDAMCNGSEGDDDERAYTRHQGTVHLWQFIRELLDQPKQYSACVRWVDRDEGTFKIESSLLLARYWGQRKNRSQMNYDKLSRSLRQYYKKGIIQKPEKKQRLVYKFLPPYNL
The data set is described as follows: EMSA. The following applies: 25 mM Tris-Cl pH 7.9, 10% glycerol, 0.1 mM EDTA, 60 mM KCl, 6 mM MgCl2, 0.2 mg/ml BSA, 10 mM DTT, 50 ng poly[d(I-C)] in 20 ul, 1 h at 4 C; 6% native PAGE at …. For orientation: In EMSA bound probe runs differently from free probe, usually more slowly.

“TCGACGGCCAAGCCGGAAGTGAGTGCC (double strand) [ETS Site-WT (GGAA)]” showed a dissociation constant Kd of 1 nM. That is a single-digit nanomolar value. With “TCGACGGCCAAGCCGGATGTGAGTGCC (double strand) [ETS Site-WT (GGAT)]”, the dissociation constant Kd stood at 1 nM. This counts as single-digit nanomolar.
